Measured values taken from publication PMC9856709 (Cancers, 2023).
Entries after “also recorded” stand apart in the source; their conditions may differ. Read-outs that look alike come from different tables or passages of the source. Numbered stars: 1 amine (or outer) side, 2 acyl side, 3 side chain; on linkers, the order of the positions; unused ones are H or OH. Square brackets hold non-standard residues; d marks the D form. Peptide text beside a SMILES is read from it. * marks the point of attachment. NOTA = O=C(O)CN1CCN(CC(=O)O)CCN(CC(=O)*)CC1; γGlu = O=C(O)[C@H](CCC(=O)[*:2])N[*:1]; Sta = CC(C)C[C@H](N)[C@@H](O)CC(=O)O; AEEA = NCCOCCOCC(=O)O; Aoc = NCCCCCCCC(=O)O; CO = O=C([*:1])[*:2]

What was measured:
[1] = tested on: PC3-pip xenografts; assay: nanoScan PET/CT imaging of PC3-pip xenografted mice; format: in vivo, BALB/c nu/nu mice; details: 100 pmol, 8 MBq, n = 2
Description: Immediately after the PET scan, a CT scan was performed using a nanoScan SPECT/CT camera (Mediso Medical Imaging System Ltd., Budapest, Hungary) with the same bed. […] Imaging of the non-blocked (n = 2) and the PSMA/GRPR-blocked (n = 2) groups was performed at 1 and 3 h pi. Reconstruction of the PET/CT scans was conducted using Nucline nanoScan 3.04.014.0000 software.

[2] = tested on: PSMA and GRPR; assay: In vitro binding specificity (blocking) in PC3-pip cells; format: cell-based, human; details: 1 h 37 °C
Description: (§1) In vitro experiments were carried out using the PSMA- and GRPR-expressing human prostate carcinoma PC3-pip cell line (obtained from Prof. Martin Pomper, The Johns Hopkins University, Baltimore, MD, USA). Cells (5–7 × 10^5 cells/vial) were seeded 24–48 h before the experiments. All experiments were performed in triplicate.
To block the targets, cells were incubated at room temperature for 15 min with an excess (750 nM/well) of PSMA-11 (to block PSMA) and/or NOTA-PEG2-RM26 (to block GRPR). […] After 1 h, cells were collected, and the radioactive content was measured using an automated gamma counter.

[3] = 37 °C, 1 h, ITLC
Description: After 1 h, samples were taken from all solutions and analysed by ITLC.

[4] = Stability in PBS and EDTA challenge; format: physicochemical; details: 1 h, ITLC
[5] = tested on: PSMA and GRPR; assay: In vivo binding specificity (blocked groups) in PC3-pip xenografted mice; design: species or system BALB/c nu/nu mice; details: 1 h pi
Description: (§2) Ex vivo experiments and in vivo imaging were carried out using BALB/c nu/nu mice bearing PC3-pip xenografts. All studies were performed according to the guidelines of the Declaration of Helsinki and approved by the Ethics Committee for Animal Research in Uppsala, Sweden (5.8.18-00473/2021. Approved on 26 February 2021).
(§3) There were 4 mice in each group. At 1 and 3 h pi, mice were sacrificed after an intraperitoneal injection of a Ketalar–Rompun solution (20 μL/g body weight) consisting of Ketalar (10 mg/mL) and Rompun (1 mg/mL), followed by heart puncture.

[6] = as above; design: species or system BALB/c nu/nu mice; details: BALB/c nu/nu, mouse, iv, total radioactivity, 1 h pi, 40 pmol iv, average ± SD
Description: as §2, §3

[7] = Source text: The average animal weight was 27.4 ± 1.6 g and OLINDA/EXM 1.0 software (adult male phantom) was used to estimate the absorbed doses.
The well-established “percent kg/g method” using Equation (1) was used to upscale the uptake values in mice to be able to evaluate the dosimetry in humans. The organ weights of the reference adult male were used to calculate the organ uptake in humans and the area under the curve of exponential fits for human time–activity curves was used to calculate the residence times. (%IA/organ)human = [(%IA/g)animal × (kBqTBweight)animal × (gorgan/(kBqTBweight)human](1)

[8] = tested on: PC3-pip xenografts; assay: in vivo; details: non-blocked
Description: as §2, §3

[9] = tested on: Wistar rats; assay: Acute and subacute toxicity in rats; format: in vivo
Description: The animals were kept in a barrier-type animal facility under standard housing conditions. […] The dose of heterodimer for toxicological studies was calculated based on cross-species dose conversion using body surface area scaling: the maximum dose for the clinical study was chosen to be 300 µg of heterodimer per 75 kg patient, or […], which corresponds to [(4 µg × 427 g)/1000 g] × 6 = 10.3 µg per rat. Ten rats from each group were euthanized at 24 h pi and five rats at 28 days pi. The body weight of the rats was controlled at baseline, at 24 h after administration for the acute toxicity group, and every second day for the subacute toxicity group. Biochemical blood tests on alanine aminotransferase, albumin, aspartate aminotransferase, bilirubin, glucose, creatinine, urea, the total amount of proteins, cholesterol, and ALT were performed before the euthanasia. Necropsy of the experimental rats was performed, and the weights of the brain, heart, lungs, liver, adrenal glands, kidneys, spleen, testes, and thymus were measured.

[10] = tested on: PC3-pip cell line; assay: Cellular processing in PC3-pip cells; format: cell-based, human; details: 1 nM, 37 °C
Description: as §1
At selected time points (1 and 3 h), cells were collected, and the total cell-associated activity was measured using an automated gamma counter. At 3 h, the membrane-bound and internalised fractions were collected separately using the acid and base method described earlier.

[11] = estimated for adult male from mouse ex vivo data, percent kg/g method, OLINDA/EXM 1.0
[12] = 3 h, acid and base method, triplicate

## CC(C)C[C@H](NC(=O)C[C@H](O)[C@H](CC(C)C)NC(=O)[C@H](Cc1c[nH]cn1)NC(=O)CNC(=O)[C@@H](NC(=O)[C@H](C)NC(=O)[C@H](Cc1c[nH]c2ccccc12)NC(=O)[C@H](CCC(N)=O)NC(=O)[C@@H](Cc1ccccc1)NC(=O)COCCOCCNC(=O)[C@H](CCCCNC(=O)CN1CCN(CC(=O)O)CCN(CC(=O)O)CC1)NC(=O)[C@H](Cc1ccccc1)NC(=O)CCCCCCCNC(=O)CC[C@H](NC(=O)N[C@@H](CCC(=O)O)C(=O)O)C(=O)O)C(C)C)C(N)=O [[^68Ga]Ga-BQ7812, metal not drawn] ({Glu-CO-γGlu-Aoc}-FK(NOTA)[AEEA][dF]QWAVGH[Sta]L-NH2)
[1]; 1 and 3 h pi
  PET/CT visualisation, non-blocked: elevated activity uptake could be visualised in the kidneys and the tumour
[1]; co-injected NOTA-PEG2-RM26 and PSMA-11 (5 nmol each)
  PET/CT visualisation of tumour upon blocking of PSMA and GRPR: the tumour is no longer visualised
[2]; 20 nM tracer
  Uptake in cells pre-saturated with both blocking agents compared to either one: significantly lower
[2]; excess NOTA-PEG2-RM26, 20 nM tracer, triplicate, p < 0.05
  Activity uptake after pre-saturation of GRPR compared to naive cells: significant decrease
[2]; excess PSMA-11, 20 nM tracer, triplicate, p < 0.05
  Activity uptake after pre-saturation of PSMA compared to naive cells: significant decrease
[2]; excess PSMA-11 and NOTA-PEG2-RM26, 20 nM tracer, triplicate, p < 0.05
  Activity uptake after pre-saturation of PSMA and GRPR compared to naive cells: significant decrease
[3]
  Release of free gallium-68 in human serum: no release of free gallium-68 was detected
  Stability in human serum: stable
[4]; 1000-fold molar excess EDTA
  Release of free gallium-68 under EDTA challenge: minor release
[4]; PBS, room temperature
  Release of free gallium-68 in PBS: minor release
[5]; co-injected NOTA-PEG2-RM26 5 nmol
  Uptake in tumour and pancreas, GRPR-blocked group compared with non-blocked group: statistically significantly lower
[5]; co-injected PSMA-11 5 nmol
  Uptake in tumour and kidneys, PSMA-blocked group compared with non-blocked group: statistically significantly lower
[6]; blood, GRPR blocked (co-injected NOTA-PEG2-RM26 5 nmol), read-out: Uptake (%IA/g), Blood
  tissue uptake at 1 h: 0.69 ± 0.28 %ID/g
[6]; blood, PSMA blocked (co-injected PSMA-11 5 nmol), read-out: Uptake (%IA/g), Blood
  tissue uptake at 1 h: 0.8 ± 0.24 %ID/g
[6]; kidneys, GRPR blocked (co-injected NOTA-PEG2-RM26 5 nmol), read-out: Uptake (%IA/g), Kidneys
  tissue uptake at 1 h: 34.5 ± 8.74 %ID/g
[6]; kidneys, PSMA blocked (co-injected PSMA-11 5 nmol), read-out: Uptake (%IA/g), Kidneys
  tissue uptake at 1 h: 13.8 ± 0.45 %ID/g
[6]; pancreas, GRPR blocked (co-injected NOTA-PEG2-RM26 5 nmol), read-out: Uptake (%IA/g), Pancreas
  tissue uptake at 1 h: 0.76 ± 0.14 %ID/g
[6]; pancreas, PSMA blocked (co-injected PSMA-11 5 nmol), read-out: Uptake (%IA/g), Pancreas
  tissue uptake at 1 h: 6.33 ± 1.86 %ID/g
[6]; salivary glands, GRPR blocked (co-injected NOTA-PEG2-RM26 5 nmol), read-out: Uptake (%IA/g), Salivary Glands
  tissue uptake at 1 h: 0.29 ± 0.07 %ID/g
[6]; salivary glands, PSMA blocked (co-injected PSMA-11 5 nmol), read-out: Uptake (%IA/g), Salivary Glands
  tissue uptake at 1 h: 0.38 ± 0.12 %ID/g
[6]; tumour (PC3-pip xenograft), GRPR blocked (co-injected NOTA-PEG2-RM26 5 nmol), read-out: Uptake (%IA/g), Tumour (PC3-pip)
  tissue uptake at 1 h: 5.73 ± 0.72 %ID/g
[6]; tumour (PC3-pip xenograft), PSMA blocked (co-injected PSMA-11 5 nmol), read-out: Uptake (%IA/g), Tumour (PC3-pip)
  tissue uptake at 1 h: 8.26 ± 1.03 %ID/g
[7]; after injection of 200–300 MBq, from estimated effective dose
  Total dose per scan: 1.66–2.49 mSv
[7]; estimated for adult male from mouse ex vivo data
  Absorbed doses in the remaining organs and tissues (other than kidneys, heart wall, lower large intestine wall): below 0.02 mSv/MBq
[7]; [11]
  Absorbed Dose, Adrenals: 0.0043 mGy/MBq
  Absorbed Dose, Brain: 0.0007 mGy/MBq
  Absorbed Dose, Breasts: 0.0030 mGy/MBq
  Absorbed Dose, Gallbladder wall: 0.0042 mGy/MBq
  Absorbed Dose, Heart wall: 0.0265 mGy/MBq
  Absorbed Dose, Kidneys: 0.0660 mGy/MBq
  Absorbed Dose, Liver: 0.0044 mGy/MBq
  Absorbed Dose, Lower large intestine wall: 0.0250 mGy/MBq
  Absorbed Dose, Lungs: 0.0041 mGy/MBq
  Absorbed Dose, Muscle: 0.0024 mGy/MBq
  Absorbed Dose, Osteogenic cells: 0.0080 mGy/MBq
  Absorbed Dose, Ovaries: 0.0045 mGy/MBq
  Absorbed Dose, Pancreas: 0.0186 mGy/MBq
  Absorbed Dose, Red marrow: 0.0057 mGy/MBq
  Absorbed Dose, Skin: 0.0026 mGy/MBq
  Absorbed Dose, Small intestine wall: 0.0199 mGy/MBq
  Absorbed Dose, Spleen: 0.0033 mGy/MBq
  Absorbed Dose, Stomach wall: 0.0048 mGy/MBq
  Absorbed Dose, Testes: 0.0030 mGy/MBq
  Absorbed Dose, Thymus: 0.0038 mGy/MBq
  Absorbed Dose, Thyroid: 0.0030 mGy/MBq
  Absorbed Dose, Total body: 0.0044 mGy/MBq
  Absorbed Dose, Upper large intestines LI wall: 0.0111 mGy/MBq
  Absorbed Dose, Urinary bladder wall: 0.0036 mGy/MBq
  Absorbed Dose, Uterus: 0.0042 mGy/MBq
  Effective dose: 0.0083 mSv/MBq
  Effective dose equivalent: 0.0124 mSv/MBq
[8]
  Activity uptake in the kidneys at 3 h pi as % of uptake at 1 h pi: 26%
  Activity uptake in the pancreas at 3 h pi as % of uptake at 1 h pi: 11%
  Activity uptake in the tumour at 3 h pi as % of uptake at 1 h pi: 55%
[9]; single iv bolus 10.3 μg (10 MBq for labelled), 24 h and 28 days pi, vs control groups
  Clinical or biochemical parameters in toxicological studies: no changes
[9]; single iv bolus 10.3 μg, acute (24 h) and subacute (28 days)
  Toxicity conclusion: absence of toxicity; also recorded: safe toxicological profile
[10]; 1 and 3 h
  Binding to the targets in cellular processing: rapid binding
[10]; [12]
  Internalised fraction of total cell-associated activity: approximately 20%
  Membrane-bound fraction of total cell-associated activity: ~80%
